# Experiment: soluble on expression in E. coli; label from the status in PepcDB or PDB records
row,Sequence,soluble on expression in E. coli
1,MSLKTTTSSTPSDRITWVRISSCYLPLATPISDAKVLTGRQKPMTEIAILFAEIETAGGHQGLGFSYSKRAGGPGQFAHAREIAPALIGEDPSDIAKLWDKLCWAGASAGRSGLSTQAIGAFDVALWDLKAKRAGLSLAKLLGSYRDSVRCYNTSGGFLHTPIDQLMVNASASIERGIGGIKLKVGQPDGALDIARVTAVRKHLGDAVPLMVDANQQWDRPTAQRMCRIFEPFNLVWIEEPLDAYDHEGHAALALQFDTPIATGEMLTSAAEHGDLIRHRAADYLMPDAPRVGGITPFLKIASLAEHAGLMLAPHFAMELHVHLAAAYPREPWVEHFEWLEPLFNERIEIRDGRMLVPTRPGLGLTLSGQVKAWTREEAQVGTRPEGHHHHHH,soluble
2,MSLKVATFIEPGKMVITDTPKPVIEQETDAVIKIVRACVCGSDLWWYRGISKRESGSFAGHEAIGIVEEVGTKVTDVSKGDFVIVPFTHGCGQCPSCKAGFDGNCTNHQAAKNVGYQGQYLRYTNANWALVKIPGQPSDYDNETLNSLLTLSDVMATGYHAAATAEVKEGDTVVVMGDGAVGLCGVIAAKMLGANRIIAMSRHKDRQELALTFGATDIVEERGDEAVKRVLDLTNQAGADAVLECVGTEQSVDTATQIARPGAVIGRVGIPQNPDMNTNNLFWKNIGLRGGIASVTTFDKSVLLDAVLTHKINPGLVFTKSFVLDDIQKAYEAMDKRDAIKSLVIVDEGHHHHHH,soluble
3,MSLKVGISMFNILQSTQLSSNTFDFWLEAPRIATHAQAGQFVILRIDEKGERIPLTIAETNPQAGSIRIIFQVIGKTTAALSQLKTSDSLLDITGPLGMPTEVKQYGTVMVVGGGVGIAAIYPIIKALKEAGNRVITILGARTAELVLLQEECRRYSDELIITTDDGSLGKKGLVTEAMEEVIARESVACSWAIGPSIMMKFCTLTAEKHQLPIYVSLNPIMIDGTGMCGGCRVTVDGTMKFACVDGPEFKGNEVNWDEFINRMKQYQEEEAVCFTDRLKEQVEKNGEGGSHHHHHH,soluble
4,MSLKVHGVILMNIEEWEEYRYVEAGIKESITLIEDPGLKKMVEHVCHSGGKRIRPIILLLVSEICSGSYSRSLNAALAVEMMHSASLIHDDLLDQGLVRRNLPSAPEKFGPSGALLCGDYLIAKSIAFISPYGEKVIQDFGKAGMDMAEGEVLDLKLEDESFGENDYFKCIYKKTASLFAISASIGAYTGGAEEELAERFSHFGNALGTAYQIVDDILEFLEVVEGKESKFTSETLPHIYMKSTSKEEALKKSIDCVKLHVAAAKETLETFRECPARDKLFQITDYITVDMLENLEGHHHHHH,soluble
5,MSLKVPGIRNYDGPAGGWGALKATATAVREQMDTLKAPLTLMRTNQPDGFDCPGCAWPDKEHKSTFQFCENGAKAVTWEATNKRVTPAFFAQHPVTSLLQRSDYELEDLGRLTEPLVYDRASDTFKPVAWQDAFARIGEILRSLQPEQVEFYTSGRASNEAAYLYQLFAREYGCNNFPDCSNMCHEPTSVGLPRSIGIGKGTVSLEDFDLCELIISIGHNPGTNHPRMMGTLHEASRRKVPIMVFNPLRERALERFADPQNMVEMATYGSTRIASSYFQVKAGGDAAAIKGIMKALLALEDSLGQVLDQAFIAEHTQGFEALAADLHATAWADIEQASGLHQADLEMVAAAYAKSNATIVTYGMGITQHNEGTANVRLICDLLMLRGNLGKPGAGICPLRGHSNVQGNRTVGITEKPSPAFLDKLQQTFGFTPPAHHGHDAVQAMQAMIAGSAKALLCLGGNFAVALPDPGQCFPAMGKLDLSVHIATKLNRSHLLVARETFLFPCLGRTELDMQDGLRQAITVEDSMSMVHASAGKLAPASEFLLSEPAIVAGMARATLPGSRVPWLELVADYDKIRDLIEQTVPGFDDYNARIRVPGGFRMPLAAAERQWLTPSGKAEFFVFPGLHEDKEVDGADVLRLITLRSHDQYNTTIYALDDRYRGVFGRRDVLFISPADLAARGLAHGDLVDIETVIGGRRLRYEKITAIEYKIANGTVGAYYPEANRLVPLDYLDVDSGTPSYKSVPVRVLRSSPAEGHHHHHH,soluble
6,MSLKVRLEDVAKRLGVSVATVSRSLAGHPAISSETRGAVRAVASELGYRIPTQGRRGKKSSTKLIGVVVGALHNRFMTLLLTHLHDALQELGYQMTLVIDSMNDSQNLQALRPLIEGYLDGLIFATATLDSPVIAEMQRRAIPLVLVVRSVDDVRVDTVEIDNVHAGAVAAEHLYQLGHRRIGLVMGPQNTSTSRDRAKGALTYLADIGISSEAVTLMWSDYTTEAGYSSAMAIFNEADPVTAIVAGNDTIALGVLEAAARRAIKVPEQLSVIGFDDMPLAGSPLVALTSIRQPVRAMARTAARRLIDRIRAGGMGAPVHDVLPIQLVRRETTGPREGHHHHHH,soluble
7,MSLKVVFVSYEVFPFAKVGGLADVAGTLPKYLKKHGVDVTIVMPKHRIVEKNAEKFGYEIKKVAESLSVSHVKTDQKFDIYESVLPGSDVKTYFVANDYYFSAEDVYAGPDLGEQAIFFCAATLDLVKHLDLKPDIVHVNDWQTALIPVYLKTVYRDDPYFSRTATVLTIHNLGYQGVFDPKYLSFAGLPDYVYTIDGLEFYGQLNFLKGGIVFSDVINTVSPTYAEEIQTEEYGEKLDGVLRMRSKDLYGILNGIDYELYNPATDRYIYVNYDVNRLELKWENKVKLQEELGLPVNKETAVAGLISRLVPQKGLDLLVDVMDYLTLFDLQIVVLGTGDEQYENAFRKFQERYPDKVSANIKFDVELAQKIYAGADIFLMPSRYEPCGLGQMFSMRYGTIPVVRYTGGLADTVKEYDPQSMEGTGFGFKKYDSAHLLKAVSKALHFYYREKDHWRRIMTNAMNTDLSWDRSAKEYVDLYKKALAKVGREGHHHHHH,soluble
8,MSLKYAVLGATGLLGHHAARAIRAAGHDLVLVHRPSSQIQRLAYLEPECRVAEMLDHAGLERALRGLDGVIFSAGYYPSRPRRWQEEVASALGQTNPFYAACLQARVPRILYVGSAYAMPRHPQGLPGHEGLFYDSLPSGKSSYVLCKWALDEQAREQARNGLPVVIGIPGMVLGELDIGPTTGRVITAIGNGEMTHYVAGQRNVIDAAEAGRGLLMALERGRIGERYLLTGHNLEMADLTRRIAELLGQPAPQPMSMAMARALATLGRLRYRVSGQLPLLDETAIEVMAGGQFLDGRKAREELGFFSTTALDDTLLRAIDWFRDNGYFNTEGHHHHHH,soluble
9,MSLKYDVVVIGAGGAGYHGAFRLAKAKYNVLMADPKGELGGNCLYSGCVPSKTVREVIQTAWRLTNIANVKIPLDFSTVQDRKDYVQELRFKQHKRNMSQYETLTFYKGYVKIKDPTHVIVKTDEGKEIEAETRYMIIASGAETAKLRLPGVEYCLTSDDIFGYKTSFRKLPQDMVIIGAGYIGLEIASIFRLMGVQTHIIEMLDRALITLEDQDIVNTLLSILKLNIKFNSPVTEVKKIKDDEYEVIYSTKDGSKKSIFTNSVVLAAGRRPVIPEGAREIGLSISKTGIVVDETMKTNIPNVFATGDANGLAPYYHAAVRMSIAAANNIMANGMPVDYVDVKSIPVTIYTIPSLSYVGILPSKARKMGIEIVEAEYNMEEDVSAQIYGQKEGVLKLIFERGSMRLIGAWMIGVHSQYLINELGLAVAYGLNAKQLASFAEQHPSTNEIISYTARKVIEGHHHHHH,soluble
10,MSLKYEGSISINATKDQILKLLDNPDQVAQCFPGIKSFSKEGEEYKVVGVTGIGFIKGEYRANVRFEKIDDNKRKIIAKGTGMNSNVDIDAIAEALDGKINYSADVKVAGVLASVGARLMGSAVEKIINDLFNCIKERVIKEGHHHHHH,soluble
11,MSLKYLVMNAGRLFLSLLKESGVNKIFIVSGTDYASLIEAKVEDSSLPEFEIVPHEITAISTAIGYALGNKLSAVAVHTTPGTANALGGIMSAFTSRIPLLVIAGRSPYTEKGNTASRNLRIHWTQEARDQGELVRQYVKYDFEIRMADQLPAVVSRAIQIMMSEPRGPVYIVLPREVSIQEVNEARRIPMDYYEPAPSPDKINKAKEMLEKSERPLIITWRAGRRKEWFESLRRFADNYNIPVLNYAGEVLNYPSSGPMALDRFDLRNSDLLLVVEAEVPYFPKKIDLDIPIVKIDVDPSYSYIPYYGFRCDLCIQSTPSNFFDYISIRPKSYDEIKELRAKQEEYKKQEIERLKDKKPIHPKYLSYEIGIVASEYNLVIFNEYQFNPRYARLNEFGSYFADLSVGYLGFALGAGVGYKIATNKDVLITTGDGSFIFGVPEAFYYVASKYPTMVVIYDNGGWLASAEAVDEVFPEGLAKSKKYYPGADFDRRFEIGKTVETFHGYYELVEDPWEIKPALIRGLEKMRRENKIAVIQVIVDKVREGHHHHHH,not soluble
